Assay results published in publication PMC3795262.

Target: Full-length recombinant human TSG-6 (secreted product of tumor necrosis factor-stimulated gene-6) (human) (UniProt P98066)
Assay: not stated; preliminary results, data not shown

UniProt P98066, sequence (P98066 18-277): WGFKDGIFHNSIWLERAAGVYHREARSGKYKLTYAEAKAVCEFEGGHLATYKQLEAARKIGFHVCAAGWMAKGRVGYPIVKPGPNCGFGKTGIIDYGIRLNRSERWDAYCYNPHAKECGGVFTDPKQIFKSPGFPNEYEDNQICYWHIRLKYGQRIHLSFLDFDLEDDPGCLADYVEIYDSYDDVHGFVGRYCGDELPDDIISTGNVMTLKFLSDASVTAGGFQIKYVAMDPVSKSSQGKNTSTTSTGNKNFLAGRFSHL

“Inter-α-inhibitor (from UniProt P19827 35-672; P19823 55-702) (complex)” showed a Kd of 0.01 µM.
